B1: Sec61p (natural protein)
chain: MSSNRVLDLFKPFESFLPEVIAPERKVPYNQKLIWTGVSLLIFLILGQIPLYGIVSSETSDPLYWLRAMLASNRGTLLELGVSPIITSSMIFQFLQGTQLLQIRPESKQDRELFQIAQKVCAIILILGQALVVVMTGNYGAPSDLGLPICLLLIFQLMFASLIVMLLDELLSKGYGLGSGISLFTATNIAEQIFWRAFAPTTVNSGRGKEFEGAVIAFFHLLAVRKDKKRALVEAFYRTNLPNMFQVLMTVAIFLFVLYLQGFRYELPIRSTKVRGQIGIYPIKLFYTSNTPIMLQSALTSNIFLISQILFQKYPTNPLIRLIGVWGIRPGTQGPQMALSGLAYYIQPLMSLSEALLDPIKTIVYITFVLGSCAVFSKTWIEISGTSPRDIAKQFKDQGMVINGKRETSIYRELKKIIPTAAAFGGATIGALSVGSDLLGTLGSGASILMATTTIYGYYEAAAKEGGFTKNLVPGFSDLM

Biological target: ribosomes (membrane-bound, carrying nascent chains) (S. cerevisiae (endogenous in yeast microsomes))
Experiment: co-sedimentation

Row | Molecule | percent of Sec61p bound to ribosomes (25°C; sec61-3 strain) [%] | percent of Sec61p bound to ribosomes (25°C; wild-type and srp101-47 strains) [%] | percent of Sec61p bound to ribosomes (srp101-47 strain, 3 h at 37°C) [%]
1 | Sec61p of the sec61-3 mutant (from UniProt P32915 1-480) (natural protein) | 30 |  | 
2 | B1 |  | 30 | 20

— paper PMC2175198
